The values below come from paper PMC6815381, “Unravelling the diversity of glycoside hydrolase family 13 α-amylases from Lactobacillus plantarum WCFS1” (Microbial Cell Factories, 2019).

Substrate in the data set: O=[N+]([O-])c1ccc(O[C@H]2O[C@H](CO)[C@@H](O[C@H]3O[C@H](CO)[C@@H](O)[C@H](O)[C@H]3O)[C@H](O)[C@H]2O)cc1
Kind of data set: purified protein. It is filed as biochemical, Lactiplantibacillus plantarum. The following applies: 50 mM MOPS pH 7.0, 20 mM NaCl, 1 mM DTT, 30 °C, substrate 0-10 mM.

B1: Lp_0179 (Amy2), maltose-forming α-amylase (Lactiplantibacillus plantarum WCFS1) (protein)
chain: MARDTQTQLRNEMIYSVFVRNYSEAGNFAGVTADLQRIKDLGTDILWLLPINPIGEVNRKGTLGSPYAIKDYRGINPEYGTLADFKALTDRAHELGMKVMLDIVYNHTSPDSVLATEHPEWFYHDADGQLTNKVGDWSDVKDLDYGHHELWQYQIDTLLYWSQFVDGYRCDVAPLVPLDFWLEARKQVNAKYPETLWLAESAGSGFIEELRSQGYTGLSDSELYQAFDMTYDYDVFGDFKDYWQGRSTVERYVDLLQRQDATFPGNYVKMRFLENHDNARMMSLMHSKAEAVNNLTWIFMQRGIPLIYNGQEFLAEHQPSLFDRDTMVADRHGDVTPLIQKLVTIKQLPLLRAADYQLAVVEEGIVKITYRAAGEALTAWIPLKGQVTAVATKLAAGSYQNLLTDGPTEVVDGKLTVDGQPVLIKYVTNTAVTKVADQSN
notes: gene 1320 bp
As for B1, the Michaelis constant (Km) (as a rule, the concentration of substrate that gives half-maximal velocity) stood at 320 ± 70 µM; the maximum rate (Vmax) – broadly, the top rate of the reaction or transport when substrate is in excess – was 0.017 µmol/min; the catalytic constant (kcat) (in general, the number of substrate molecules converted per active site and unit of time at saturation) turned out to be 3.856 ± 3.33e-05 s⁻¹.

B2: Lp_2757, maltogenic α-amylase (Lactiplantibacillus plantarum WCFS1) (protein)
chain: MQLAGIRHRPESEDTAVLAAHQLQVRLQTARDDVAQVEILFADSYLWQEGTTALERRIMQPGLATQGNQYWQTTLTVPTNRVVYAFLITDTIGATVGYGEGGFFDDVATNWQTVGNYFHMPYMHVSDAELPPAWVKETVWYQIFPERFANGVRQNDPANVQPWGAGRVHRDSFYGGDLPGITAHLDDLAALGVNGLYLCPIFTSPSNHKYDTIDHFEIDPHFGTKADFQALVDGAHARGMRVMLDAVFNHFGEQSPQWQDVIKNGEQSRFADWFHIHGWPVGRDPKTKRLNYETFATGAAMPKVNTQNPAVQAYLIDVTKYWIEQFGIDAWRFDVADEVDHGFWRALCGALRAIKPDVYLLGESWHSSQSLVGNGQFNAVMNYPLTQPILALFNGQLNPEDYVGKTNLELMMYRQPNQQAMFNALDTHDTPRLLTTLHGQLTKFKSALTLLMLLPGSPCIYYGTEVAMAGGADPDNRRCMNWQPDEQEQQVRQFVTRLIKFRRQQADFLATSQLTWTIDGHCLILTRTDVEQTIQGRFNLGAQAVSTVSGVSPILTAGITANEMAPGGFELTVA
notes: gene 1722 bp
As for B2, the Km is 620 ± 120 µM, the maximal velocity (Vmax) amounted to 0.016 µmol/min and the kcat was 4.9142 ± 1.67e-05 s⁻¹.
